Reference: PMC9234588

Legend:
[1] = molecular target: Fluorescently labelled MukB (MukB-Cy5) (E. coli) (UniProt P22523); test: single-molecule TIRF fluorescence intensity counting; MukB-Cy5 on 'bulbs' of doubly tethered λDNA; 10 nM MukB incubated with DNA at 50 mM NaCl until compacted, then 10 nM MukF, 20 nM MukE and 1 mM ATP-Mg2+ flowed in; number from the intensity against that of a single MukB bound to glass; 107 DNAs
[2] = molecular target: MukB^EQ-Cy5 (EQ MukB mutant, binds but cannot hydrolyse ATP) (E. coli) (UniProt P22523); test: single-molecule TIRF fluorescence intensity counting; MukB^EQ-Cy5 with MukE, truncated monomeric MukF (MonoMukF) and ATP-Mg2+ on doubly tethered λDNA, 150 mM NaCl buffer, ~1 pN of applied force; 164 clusters

stoichiometry N [1] | stoichiometry N [2] | Substance
2 to 4 | – | Fluorescently labelled MukB (MukB-Cy5) (from UniProt P22523 1-1486) (natural protein)
– | 2 | MukB^EQ-Cy5 (EQ MukB mutant, binds but cannot hydrolyse ATP) (from UniProt P22523 1-1486) (natural protein)
